Experimental findings from US20220267427A1 (SYSMEX, published 2022) are described below.

Experiment [1] concerns the target T1, fCK18 in apoptosis-induced HepG2 cell culture supernatant (human, UniProt P05783 239-397).
T1 construct: Natural CK18 fragment from the culture supernatant of apoptosis-induced HepG2 cells (band around 18 KDa); also called fCK18 in apoptosis-inducing cells
T1 sequence: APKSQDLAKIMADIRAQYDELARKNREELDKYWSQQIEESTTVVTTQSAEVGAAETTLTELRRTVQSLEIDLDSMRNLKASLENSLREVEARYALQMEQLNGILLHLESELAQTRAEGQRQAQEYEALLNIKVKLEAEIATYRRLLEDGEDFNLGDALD
The experiment can be described thus: plate ELISA with K18-624 magnetic microbeads, K18-328Fab-ALP detector; fCK18 20.27 ng/mL. The procedure:
(§1) Measurement samples of 3-fold dilution series (3-fold to 6561-fold dilution) were prepared from the apoptosis-induced HepG2 cell culture supernatant with a diluent (TBS, pH 7.5, 2% BSA), and fCK18 was measured. […] Based on the prepared calibration curve, fCK18 in the measurement sample was measured.
(§2) This solution was added to an ELISA plate at 25 μL/well, then each measurement sample was added at 25 μL/well, and the plate was incubated (1500 rpm, RT, 20 min). […] (3) After washing the plate, the HISCL (registered trademark) R4 reagent was added thereto at 50 μL/well, and then the mixture was stirred (1500 rpm, RT, 1 min). Thereafter, the HISCL (registered trademark) R5 reagent was added at 100 μL/well, and then the mixture was stirred (1000 rpm, RT, 10 sec). (4) Luminescence intensity was measured with a plate reader.
For orientation: In an ELISA, binding on a coated surface is turned into a signal by an enzyme label.

The target in experiment [2] is T1, fCK18 in apoptosis-induced HepG2 cell …. The experiment in a line: HISCL sandwich immunoassay; K18-624 magnetic microbeads capture, K18-328Fab-ALP detector; fCK18 2.23 ng/mL.
The target is the same in experiment [3]. The experiment can be described thus: HISCL sandwich immunoassay; K18-624 magnetic microbeads capture, K18-328Fab-ALP detector; fCK18 182.28 ng/mL.
The target is the same in experiment [4]. The experiment in a line: plate ELISA with K18-624 magnetic microbeads, K18-328Fab-ALP detector; fCK18 0.74 ng/mL. As to the method: as §1, §2
Experiment [5] shares this target. The experiment in a line: plate ELISA with K18-624 magnetic microbeads, K18-328Fab-ALP detector; fCK18 60.73 ng/mL. As to the method: as §1, §2
Experiment [6] has the same target. The experiment in a line: HISCL sandwich immunoassay; K18-624 magnetic microbeads capture, K18-328Fab-ALP detector; fCK18 0.09 ng/mL.
For experiment [7] the target is unchanged. The experiment in a line: plate ELISA with K18-624 magnetic microbeads, K18-328Fab-ALP detector; fCK18 6.79 ng/mL. The procedure:
as §1, §2

Experiment [8] has the same target. The experiment in a line: HISCL sandwich immunoassay; K18-624 magnetic microbeads capture, K18-328Fab-ALP detector; fCK18 6.79 ng/mL. The procedure: as §1, §2
Experiment [9] shares this target. The experiment in a line: HISCL sandwich immunoassay; K18-624 magnetic microbeads capture, K18-328Fab-ALP detector.
The target in the next experiment is T2, rfCK18 (127-430) (human, UniProt P05783 127-430).
T2 construct: Bought (Proteintech Inc.); captured through an anti-GST or penta HIS antibody, the tag is not described
T2 sequence: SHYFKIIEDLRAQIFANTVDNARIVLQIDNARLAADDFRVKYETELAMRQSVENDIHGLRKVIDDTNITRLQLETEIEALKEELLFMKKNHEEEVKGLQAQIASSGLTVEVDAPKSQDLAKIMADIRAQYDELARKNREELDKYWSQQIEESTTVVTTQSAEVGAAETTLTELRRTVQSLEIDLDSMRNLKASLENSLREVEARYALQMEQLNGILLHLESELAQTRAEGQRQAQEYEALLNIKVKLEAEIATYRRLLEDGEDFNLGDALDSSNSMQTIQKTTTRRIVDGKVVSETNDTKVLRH
The experiment in a line: solid phase ELISA; antigen (0.3 ug/mL) captured by anti-GST or penta HIS antibody on plate, antibody 5 to 10 ng/mL. As to the method: (1) An ANTI GST antibody or a penta HIS antibody was added to an ELISA plat at 2.5 μg/mL and 50 μL/well, and the plate was allowed to stand at 4° C. overnight to immobilize the antibody. Thereafter, the plate was washed three times with PBST, and Buffer I′ (10 mM NaH₂PO₄.2H₂O, 149.7 mM NaCl, 2.5 mM EDTA 2Na, 0.10% BSA, pH 7.0) was added thereto at 200 μL/well to prepare a plate stored at 4° C. overnight. […] (3) The plate was washed three times with PBST, and 50 μL each of each antigen diluent was added thereto, followed by shaking for 45 minutes. […] (6) The plate was washed three times with PBST, and 15000-fold diluted Peroxidase-conjugated Affinipure F(ab)′2 Fragment Goat Anti-Mouse IgG (H+L) (Jackson) was added thereto at 50 μL/well, followed by shaking for 45 minutes. (7) The plate was washed three times with PBST, TMB Mix (1-step Ultra TMB-ELISA (Thermo Scientific):3% H₂O₂: Phosphate-Citrate buffer (Sigma)=15:0.15:14.85) was added thereto at 100 μL/well, and the mixture was reacted at room temperature for 10 minutes. Thereafter, 1 M H₂SO₄ was added thereto at 100 μL/well to stop the reaction. (8) Absorbance of the reaction solution at 450 nm was measured with a plate reader.

B1: K18-624 antibody (antibody, V domains shown)
VH: DVQLVESGGGLVQPGGSRKLSCAASGFTFSSFGMHWVRQAPEKGLEWVAYISSGSTTIYYADTVKGRFTISRDNPKNTLFLQMTSLRSEDTAMYYCARRGMITTGAWFAYWGQGTLVTVSA
VL: DILLTQSPAILSVSPGERVSFSCRASQRIGTSIHWYQQRTNGSPRLLIKYASESISGIPSRFSGSGSGTDFTLSINSVESEDIADYYCQQSYIWPFTFGSGTKLEIK
notes: Mouse monoclonal antibody from a hybridoma (Balb/C mouse immunised with Peptide 1-KLH)
In the case of B1, the S/N ratio in experiment [1] is 525; in [2] it was 25.9; in experiment [3] it was 2070; in [4] it was 16.1; in experiment [5], 1850; in [6], 1.9. The figures for the S/N ratio in [7] and in experiment [8] were 158 and 75.7, respectively. Further, the “fCK18 concentration detectable (S/N ratio of 2 or more)” value in experiment [9] was at least 0.28 ng/mL. The “fold detection sensitivity compared with Comparative Example 1 (M30 antibody)” value in experiment [9] was around 8 fold.

B2: K18-328 antibody (antibody, V domains shown)
VH: QVHLQQSAAELARPGASVKMSCKASGYTFTNYTIHWIKQRPGQGLEWIGYINPSSGYTDYNQNFKDKTTLTADKSSTTVYMQLSSLTSEDSAVYYCARQIPFAYWGQGTLVTVSA
VL: not shown
notes: Mouse monoclonal antibody from a hybridoma (immunogen full length rCK18)
The molecule B2 had an Abs450 in the experiment with rfCK18 (127-430) of 0.89.
